# Test results published in patent publication US20240082434A1.
# Target: CA1.CD2 PEGylated with P40 (rat)
# Assay: Western blot; PEGylated (P40) against unmodified CA1.CD2
substance,measurement,value
antibody OX34,decrease of binding against unPEGylated CA1.CD2,50%
